The results in this text go back to PMC7596504 (2020).

For this experiment, the target named is T1, MORC4 ATPaseCW cassette (aa 29-486) (human, UniProt Q8TE76 29-486).
T1 chain: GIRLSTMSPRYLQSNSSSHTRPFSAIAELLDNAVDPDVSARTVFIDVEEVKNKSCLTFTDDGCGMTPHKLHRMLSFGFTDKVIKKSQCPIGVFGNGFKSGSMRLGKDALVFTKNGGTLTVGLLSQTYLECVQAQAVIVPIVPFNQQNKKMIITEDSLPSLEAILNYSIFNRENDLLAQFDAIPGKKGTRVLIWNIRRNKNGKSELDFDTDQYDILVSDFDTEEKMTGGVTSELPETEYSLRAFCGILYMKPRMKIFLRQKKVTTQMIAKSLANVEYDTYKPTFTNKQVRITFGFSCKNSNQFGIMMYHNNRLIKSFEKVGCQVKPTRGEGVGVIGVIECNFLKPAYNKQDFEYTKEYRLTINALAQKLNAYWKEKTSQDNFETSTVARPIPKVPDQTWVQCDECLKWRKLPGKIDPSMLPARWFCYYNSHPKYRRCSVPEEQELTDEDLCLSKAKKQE

B1: unmodified histone H3 peptide (aa 1-12 of H3) (peptide)
peptide: ARTKQTARKSTG
What is called Kd is the constant that tells how readily two partners part at equilibrium. Lower therefore signals tighter binding. Regarding B1, the Kd was 12 µM.
